B1: Retinoblastoma-associated protein (Homo sapiens), P06400 (parent)
chain: MPPKTPRKTAATAAAAAAEPPAPPPPPPPEEDPEQDSGPEDLPLVRLEFEETEEPDFTALCQKLKIPDHVRERAWLTWEKVSSVDGVLGGYIQKKKELWGICIFIAAVDLDEMSFTFTELQKNIEISVHKFFNLLKEIDTSTKVDNAMSRLLKKYDVLFALFSKLERTCELIYLTQPSSSISTEINSALVLKVSWITFLLAKGEVLQMEDDLVISFQLMLCVLDYFIKLSPPMLLKEPYKTAVIPINGSPRTPRRGQNRSARIAKQLENDTRIIEVLCKEHECNIDEVKNVYFKNFIPFMNSLGLVTSNGLPEVENLSKRYEEIYLKNKDLDARLFLDHDKTLQTDSIDSFETQRTPRKSNLDEEVNVIPPHTPVRTVMNTIQQLMMILNSASDQPSENLISYFNNCTVNPKESILKRVKDIGYIFKEKFAKAVGQGCVEIGSQRYKLGVRLYYRVMESMLKSEEERLSIQNFSKLLNDNIFHMSLLACALEVVMATYSRSTSQNLDSGTDLSFPWILNVLNLKAFDFYKVIESFIKAEGNLTREMIKHLERCEHRIMESLAWLSDSPLFDLIKQSKDREGPTDHLESACPLNLPLQNNHTAADMYLSPVRSPKKKGSTTRVNSTANAETQATSAFQTQKPLKSTSLSLFYKKVYRLAYLRLNTLCERLLSEHPELEHIIWTLFQHTLQNEYELMRDRHLDQIMMCSMYGICKVKNIDLKFKIIVTAYKDLPHAVQETFKRVLIKEEEYDSIIVFYNSVFMQRLKTNILQYASTRPPTLSPIPHIPRSPYKFPSSPLRIPGGNIYISPLKSPYKISEGLPTPTKMTPRSRILVSIGESFGTSEKFQKINQMVCNSDRVLKRSAEGSNPPKPLKKLRFDIEGSDEADGSKHLPGESKFQQKLAEMTSTRTRMQKQKMNDSMDTSNKEEK
partner: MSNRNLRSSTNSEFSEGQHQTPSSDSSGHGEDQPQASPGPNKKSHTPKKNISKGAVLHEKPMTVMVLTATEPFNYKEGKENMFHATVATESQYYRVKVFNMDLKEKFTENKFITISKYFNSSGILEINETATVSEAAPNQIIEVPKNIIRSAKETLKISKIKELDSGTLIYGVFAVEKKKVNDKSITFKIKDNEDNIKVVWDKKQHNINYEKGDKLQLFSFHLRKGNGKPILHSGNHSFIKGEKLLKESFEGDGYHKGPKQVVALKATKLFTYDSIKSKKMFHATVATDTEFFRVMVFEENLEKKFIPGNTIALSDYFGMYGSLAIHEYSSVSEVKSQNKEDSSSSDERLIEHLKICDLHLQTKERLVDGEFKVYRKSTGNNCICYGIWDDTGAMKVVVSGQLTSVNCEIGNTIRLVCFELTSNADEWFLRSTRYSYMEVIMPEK

Variants of: B1
Details: with ifi2_mouse Ifi202, Q9R002

Row | effect of a mutation on the interaction | Variant
1 | decreasing interaction | C706F

— IntAct's records for PubMed 7890747
